Source: paper PMC6441019, “Prospective discovery of small molecule enhancers of an E3 ligase-substrate interaction” (Nature Communications, 2019)
Where a SMILES comes first, the peptide text is derived from it. Where no end group is shown, it is not given here. [ ]: non-standard residue; d: D form. The star is where a group is joined. pS = N[C@@H](COP(=O)(O)O)C(=O)O; Cbz = O=C(OCc1ccccc1)*

Assays:
[1] = biological target: T1, pSer33/S37A β-catenin peptide binding to β-TrCP (Homo sapiens, UniProt P35222+Q9Y297, S37A); experiment: TR-FRET binding enhancement assay, pSer33/S37A peptide
T1 construct: titrating BODIPY-FL-labeled β-catenin peptides (residues 17-48) against 300 pM β-TrCP; 6xHis-SMT3 (N, cleaved yes); made in house; host or cells: E. coli (co-expressed with BirA)
Protocol: (§1) Compounds were incubated in a 20 μl reaction volume with 300 pM biotinylated β-TrCP/Skp1 preincubated with 1.2 nM terbium-coupled streptavidin (Cisbio) and BODIPY-FL labeled β-catenin peptides (see figure legends for peptide details) in a white 384-well microplate (Perkin Elmer ProxiPlate), using a PBS buffer containing 0.01% Triton X-100 and 2 mM DTT with 2% final DMSO. […] Following 1-h incubation, plates were read for TR-FRET signal after excitation at 320 nm and read at 520 and 620 nm using an EnVision plate reader (Perkin Elmer). TR-FRET signal was calculated using a 520/620 nm ratio. Binding and enhancement data were fit to a standard Hill equation (Y = Bmin + (Bmax − Bmin)(X^h)/(X^h + EC50^h)) in Prism (GraphPad). Errors are standard error of the fit.

[2] = biological target: T2, S33E/S37A β-catenin peptide binding to β-TrCP (Homo sapiens, UniProt P35222+Q9Y297, S33E/S37A); experiment: TR-FRET binding enhancement assay, S33E/S37A peptide; conditions: 1% binding saturation
T2 construct: titrating BODIPY-FL-labeled β-catenin peptides (residues 17-48) against 300 pM β-TrCP; 6xHis-SMT3 (N, cleaved yes); made in house; host or cells: E. coli (co-expressed with BirA)
Protocol: as §1

[3] = biological target: Myc/FLAG-tagged S33E/S37A phosphomimetic full-length β-catenin (UniProt P35222)
[4] = biological target: T3, S33E/S37A mutant β-catenin (Homo sapiens, UniProt P35222+Q9Y297, S33E/S37A); experiment: β-catenin degradation in HEK293T cells stably expressing S33E/S37A β-catenin; assay type: cell-based; conditions: for effect of co-treatment on enhancer-induced degradation of S33E/S37A β-catenin: 5 μM MLN4924 or 10 μM MG132, added 30 min before NRX-252114
T3 construct: Full-length β-catenin (Myc/FLAG-tagged; Origene); expressed in transfected cells
Protocol: HEK293T cells were plated in a 10 cm dish in regular growth media (DMEM + 10% FBS) and allowed to adhere to the plate overnight. The following day, cells were transfected with S33E/S37 β-catenin using FuGeneHD transfection reagent. Transfected cells were then selected with media containing 700 μg/ml Geneticin. A pooled population of selected cells were used for all described experiments.
HEK293T cells expressing S33E/S37A β-catenin were plated in six-well plates at a density of 9 × 10^5 cells/well. The following day, cells were incubated with compounds diluted in regular growth media to the appropriate concentration. The final concentration of DMSO for all cell treatments was kept at 0.5% or less. Cell treatments with the Nedd8 inhibitor (MLN4924) and the proteasome inhibitor (MG132) were performed at a final concentration of 5 μM and 10 μM respectively. Cycloheximide treatment was performed at a final concentration of 100 μg/ml.

[5] = biological target: β-TrCP1 (recombinant β-TrCP/Skp1 complex) (UniProt Q9Y297); experiment: fluorescence polarisation titration; conditions: sites S33
[6] = biological target: T4, pSer33/Ser37 β-catenin:β-TrCP interaction (Homo sapiens, UniProt P35222+Q9Y297); experiment: SPR binding enhancement assay
T4 construct: titrating BODIPY-FL-labeled β-catenin peptides (residues 17-48) against 300 pM β-TrCP; 6xHis-SMT3 (N, cleaved yes); made in house; host or cells: E. coli (co-expressed with BirA)
Protocol: SPR binding assays were performed on a GE Healthcare Biacore T200 using a Series B Biacore Sensor Chip SA. […] 333 nM β-TrCP/Skp1 and titrated compound were preincubated and flowed at a rate of 30 μl/min in 10 mM HEPES, 150 mM NaCl, 0.05% Surfactant P20, 1 mM TCEP, and 2% DMSO at pH 7.4 and 20 °C. Engagement of the ternary complex was assessed with a contact and dissociation time of 120 s. […] Errors are standard error of the fit.

[7] = biological target: T5, pSer33/Ser37 β-catenin peptide binding to β-TrCP (Homo sapiens, UniProt P35222+Q9Y297); experiment: TR-FRET peptide binding and cooperativity assay, pSer33/Ser37 peptide; conditions: 500 μM NRX-1532; 300 pM β-TrCP; read-out: KD pS33/S37
T5 construct: titrating BODIPY-FL-labeled β-catenin peptides (residues 17-48) against 300 pM β-TrCP; 6xHis-SMT3 (N, cleaved yes); made in house; host or cells: E. coli (co-expressed with BirA)
Protocol: as §1

[8] = pKa determination (fast UV); assay type: physicochemical; conditions: methanol:water co-solvent
Protocol: The pKa values were determined using the fast UV (spectrometric) technique. Samples were titrated in triplicate under methanol:water co-solvent conditions (with MeOH:water mixing ratios varied from 1:1 to 1:4) in the pH range 2.0–12.0 at concentrations of 15 to 30 μM and at a temperature of 25 °C. Aqueous pKa values were determined by Yasuda-Shedlovsky extrapolation from the individual determined results.

[9] = biological target: β-TrCP1 (recombinant β-TrCP/Skp1 complex) (UniProt Q9Y297); experiment: peptide binding assay, type not said; conditions: reference: pSer33/pSer37 peptide; sites S37
[10] = biological target: biotinylated β-TrCP1-avi tag/Skp1 complex (UniProt Q9Y297); experiment: FRET or BRET; TR-FRET, no compound: BODIPY-FL β-catenin peptide titrated against 300 pM biotinylated β-TrCP/Skp1 on 1.2 nM terbium-streptavidin; PBS, 0.01% Triton X-100, 2 mM DTT, 2% DMSO; 1 h
[11] = Solubility (qualitative remark); assay type: physicochemical
[12] = biological target: T6, endogenous S37A mutant β-catenin (Homo sapiens, UniProt P35222+Q9Y297, S37A); experiment: Degradation of endogenous S37A β-catenin in TOV-112D cells; assay type: cell-based
T6 construct: host or cells: TOV-112D

[13] = biological target: β-TrCP1 (recombinant β-TrCP/Skp1 complex) (UniProt Q9Y297); experiment: TR-FRET peptide titration, no compound; conditions: reference: Ser33/S37A peptide; sites S33
[14] = biological target: T7, biotinylated β-TrCP/Skp1 complex (6xHis-SMT3-β-TrCP1-avi tag/Skp1, for TR-FRET) (UniProt Q9Y297-2 1-569; P63208 1-163, biotin on the avi tag (co-expressed with BirA)); experiment: AlphaScreen or HTRF; TR-FRET: BODIPY-FL-labeled β-catenin peptides titrated against 300 pM biotinylated β-TrCP/Skp1 on 1.2 nM terbium-coupled streptavidin; PBS, 0.01% Triton X-100, 2 mM DTT, 2% DMSO; 1 h; one-site binding model; no compound; conditions: both partners purified
T7 construct: β-TrCP1; Skp1; Held on terbium-coupled streptavidin in the TR-FRET assay; also called β-TrCP complex; source: E. coli, co-expressed from pCDF-Duet1 with BirA and d-biotin, purified (Ni-NTA, ULP1 cleavage, HiTrap SP, SEC); not shown: His6, N-terminal, cleaved; SMT3, N-terminal, cleaved; avi tag, C-terminal, kept

[15] = biological target: T8, β-TrCP (Homo sapiens, UniProt Q9Y297); experiment: TR-FRET
T8 chain: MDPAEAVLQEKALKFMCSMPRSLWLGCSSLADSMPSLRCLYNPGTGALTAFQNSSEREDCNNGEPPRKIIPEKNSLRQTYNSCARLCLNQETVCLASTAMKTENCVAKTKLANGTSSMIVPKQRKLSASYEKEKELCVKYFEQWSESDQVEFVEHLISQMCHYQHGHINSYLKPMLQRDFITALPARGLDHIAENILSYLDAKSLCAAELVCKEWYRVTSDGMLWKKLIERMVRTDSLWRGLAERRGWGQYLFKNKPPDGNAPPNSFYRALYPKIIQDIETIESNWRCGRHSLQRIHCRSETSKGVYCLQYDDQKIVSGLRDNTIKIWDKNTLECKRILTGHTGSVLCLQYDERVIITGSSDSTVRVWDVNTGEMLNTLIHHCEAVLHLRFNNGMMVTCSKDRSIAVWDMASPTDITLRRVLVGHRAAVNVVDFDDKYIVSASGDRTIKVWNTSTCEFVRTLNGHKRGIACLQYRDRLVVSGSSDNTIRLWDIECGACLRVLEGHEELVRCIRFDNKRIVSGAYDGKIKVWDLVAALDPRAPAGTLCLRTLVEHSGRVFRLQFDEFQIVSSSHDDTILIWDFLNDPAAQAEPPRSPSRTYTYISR

T3 sequence (P35222 whole entry S33E/S37A, one chain of several): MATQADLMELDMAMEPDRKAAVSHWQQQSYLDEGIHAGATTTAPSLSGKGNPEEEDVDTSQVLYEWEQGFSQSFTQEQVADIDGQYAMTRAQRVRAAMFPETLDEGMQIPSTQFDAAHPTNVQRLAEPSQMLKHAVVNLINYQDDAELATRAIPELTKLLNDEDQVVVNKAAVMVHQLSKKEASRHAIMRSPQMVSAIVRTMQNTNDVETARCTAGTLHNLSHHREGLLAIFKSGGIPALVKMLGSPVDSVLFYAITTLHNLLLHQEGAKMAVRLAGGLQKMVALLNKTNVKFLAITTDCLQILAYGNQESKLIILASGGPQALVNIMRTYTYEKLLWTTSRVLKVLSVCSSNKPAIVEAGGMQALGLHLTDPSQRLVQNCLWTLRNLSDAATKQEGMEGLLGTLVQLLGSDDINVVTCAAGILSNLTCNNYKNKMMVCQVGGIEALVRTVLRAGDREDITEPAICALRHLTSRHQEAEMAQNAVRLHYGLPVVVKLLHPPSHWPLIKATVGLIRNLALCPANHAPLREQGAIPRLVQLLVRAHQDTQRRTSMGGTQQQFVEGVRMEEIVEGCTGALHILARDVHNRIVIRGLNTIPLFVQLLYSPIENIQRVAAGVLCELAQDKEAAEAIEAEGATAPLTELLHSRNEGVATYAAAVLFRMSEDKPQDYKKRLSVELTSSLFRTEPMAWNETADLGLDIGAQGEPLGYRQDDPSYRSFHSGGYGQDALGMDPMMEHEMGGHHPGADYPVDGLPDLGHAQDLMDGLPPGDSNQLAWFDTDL
T3 sequence (P63208 whole entry partner, one chain of several): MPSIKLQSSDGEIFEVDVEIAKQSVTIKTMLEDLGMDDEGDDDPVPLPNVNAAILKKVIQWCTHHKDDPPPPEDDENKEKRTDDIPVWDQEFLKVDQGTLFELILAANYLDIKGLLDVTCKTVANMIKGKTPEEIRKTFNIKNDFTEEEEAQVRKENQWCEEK
T3 sequence (Q13616 whole entry partner, one chain of several): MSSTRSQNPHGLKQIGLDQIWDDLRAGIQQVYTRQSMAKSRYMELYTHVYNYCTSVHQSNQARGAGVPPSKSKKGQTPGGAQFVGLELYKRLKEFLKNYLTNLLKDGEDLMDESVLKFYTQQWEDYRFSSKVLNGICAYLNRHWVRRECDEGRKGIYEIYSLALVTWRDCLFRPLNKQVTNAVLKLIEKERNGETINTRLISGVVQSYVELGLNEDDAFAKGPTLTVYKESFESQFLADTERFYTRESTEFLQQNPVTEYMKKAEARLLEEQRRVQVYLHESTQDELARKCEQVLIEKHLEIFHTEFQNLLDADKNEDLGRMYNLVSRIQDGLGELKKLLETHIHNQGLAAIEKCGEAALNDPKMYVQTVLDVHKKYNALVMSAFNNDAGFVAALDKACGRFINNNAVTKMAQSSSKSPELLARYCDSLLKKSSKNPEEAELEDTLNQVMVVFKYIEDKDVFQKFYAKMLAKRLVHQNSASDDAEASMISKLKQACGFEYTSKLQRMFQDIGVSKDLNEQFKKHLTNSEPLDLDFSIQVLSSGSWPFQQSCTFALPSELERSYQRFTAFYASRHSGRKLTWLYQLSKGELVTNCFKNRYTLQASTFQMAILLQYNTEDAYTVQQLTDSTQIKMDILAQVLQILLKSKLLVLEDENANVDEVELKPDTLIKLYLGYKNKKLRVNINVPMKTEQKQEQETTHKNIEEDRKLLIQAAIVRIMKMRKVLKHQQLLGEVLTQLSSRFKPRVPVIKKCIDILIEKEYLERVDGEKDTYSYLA
T3 sequence (P62877 whole entry partner, one chain of several): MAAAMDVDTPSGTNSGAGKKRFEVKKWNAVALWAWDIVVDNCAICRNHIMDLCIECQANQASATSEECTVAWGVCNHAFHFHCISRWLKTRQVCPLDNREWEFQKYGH
T3 sequence (Q15843 1-76 partner limits assumed, one chain of several): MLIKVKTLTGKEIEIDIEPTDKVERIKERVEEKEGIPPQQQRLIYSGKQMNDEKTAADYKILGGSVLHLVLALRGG
T7 sequence (P63208 whole entry, one chain of several): as the sequence (P63208 whole entry partner, one chain of several) above
T6 sequence (P35222 whole entry S37A, one chain of several): as the sequence (P35222 whole entry S33E/S37A, one chain of several) above, with E33S counted along it
T6 sequence (P63208 whole entry partner, one chain of several): as the sequence (P63208 whole entry partner, one chain of several) above
T6 sequence (Q13616 whole entry partner, one chain of several): as the sequence (Q13616 whole entry partner, one chain of several) above
T6 sequence (P62877 whole entry partner, one chain of several): as the sequence (P62877 whole entry partner, one chain of several) above
T6 sequence (Q15843 1-76 partner limits assumed, one chain of several): as the sequence (Q15843 1-76 partner limits assumed, one chain of several) above
T4 sequence (Q9Y297 1-569 isoform Q9Y297-2, one chain of several): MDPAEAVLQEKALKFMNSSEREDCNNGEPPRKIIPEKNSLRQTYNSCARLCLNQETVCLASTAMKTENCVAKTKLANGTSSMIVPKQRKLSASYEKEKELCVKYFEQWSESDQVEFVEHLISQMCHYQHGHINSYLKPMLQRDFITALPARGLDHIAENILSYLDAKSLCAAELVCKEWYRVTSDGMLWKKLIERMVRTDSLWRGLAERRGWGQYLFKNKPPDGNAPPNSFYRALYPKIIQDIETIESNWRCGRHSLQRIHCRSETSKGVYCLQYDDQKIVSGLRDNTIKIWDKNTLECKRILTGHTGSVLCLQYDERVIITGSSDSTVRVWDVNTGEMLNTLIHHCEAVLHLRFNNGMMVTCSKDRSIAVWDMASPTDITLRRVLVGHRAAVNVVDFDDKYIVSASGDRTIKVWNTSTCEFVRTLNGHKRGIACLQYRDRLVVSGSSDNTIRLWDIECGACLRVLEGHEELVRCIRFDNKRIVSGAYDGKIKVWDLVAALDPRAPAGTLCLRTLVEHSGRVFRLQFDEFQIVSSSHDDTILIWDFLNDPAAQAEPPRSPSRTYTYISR
T4 sequence (P63208 whole entry partner, one chain of several, the tested form may be a part): as the sequence (P63208 whole entry partner, one chain of several) above
T5 sequence (Q9Y297 1-569 isoform Q9Y297-2, one chain of several): as the sequence (Q9Y297 1-569 isoform Q9Y297-2, one chain of several) above
T5 sequence (P63208 whole entry partner, one chain of several, the tested form may be a part): as the sequence (P63208 whole entry partner, one chain of several) above
T1 sequence (Q9Y297 1-569 isoform Q9Y297-2, stated change not applied): as the sequence (Q9Y297 1-569 isoform Q9Y297-2, one chain of several) above
T1 sequence (P63208 whole entry partner, the tested form may be a part): as the sequence (P63208 whole entry partner, one chain of several) above
T1 sequence (P35222 17-48 S37A limits assumed): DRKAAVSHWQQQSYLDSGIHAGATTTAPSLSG
T2 sequence (Q9Y297 1-569 isoform Q9Y297-2, stated change not applied): as the sequence (Q9Y297 1-569 isoform Q9Y297-2, one chain of several) above
T2 sequence (P63208 whole entry partner, the tested form may be a part): as the sequence (P63208 whole entry partner, one chain of several) above
T2 sequence (P35222 17-48 S33E/S37A limits assumed): as the sequence (P35222 17-48 S37A limits assumed) above, with S17E counted along it

CN(C)C(=O)c1cccc(NC(=O)c2c(Sc3c(Cl)cccc3Cl)cc(C(F)(F)F)[nH]c2=O)c1 [NRX-103095]
EC50 [1]: 163 ± 6 nM
EC50 [2]: 6700 ± 700 nM

endogenous β-TrCP of HEK293T cells (from UniProt Q9Y297 1-605) (natural protein)
degradation of stably expressed Myc/FLAG S33E/S37A β-catenin in HEK293T cells, NRX-252114 for 6 h, western blot [3]: 50 µM
degradation of stably expressed Myc/FLAG S33E/S37A β-catenin in HEK293T cells, NRX-252262 for 6 h, western blot [3]: 35 µM

CC(C)C[C@@H](C=O)NC(=O)[C@H](CC(C)C)NC(=O)[C@H](CC(C)C)NC(=O)OCc1ccccc1 [MG132, reference compound] (Cbz-Leu-Leu-Leu-aldehyde)
effect of co-treatment on enhancer-induced degradation of S33E/S37A β-catenin [4]: completely blocked

β-catenin 17-48 (from UniProt P35222) Ser33/pSer37 peptide
KD ([5]; reference: pSer33/pSer37 peptide): weaker; reference 2 nM

O=C(Nc1cccc(-c2ccn[nH]2)c1)c1ccc(C(F)(F)F)[nH]c1=O [NRX-1532]
EC50 [6]: 129000 ± 33000 nM
Kd [7]: 68 nM
pKa [8]: 5.6

β-catenin (from UniProt P35222) pSer33/S37A peptide
binding against the reference [9]: weaker

BODIPY-FL-labeled S33E/S37A phosphomimetic β-catenin peptide (residues 17-48) (from UniProt P35222 17-48)
Kd [10]: > 5000 nM
fold decrease in binding affinity relative to the pSer33/S37A peptide [10]: > 10 fold

β-catenin 17-48 (from UniProt P35222) pSer33/Ser37 peptide
binding against the reference ([5]; reference: non-phosphorylated peptide (Ser33/Ser37)): stronger

O=C(Nc1cccc(-c2nnn[nH]2)c1)c1ccc(C(F)(F)F)[nH]c1=O [NRX-1933]
solubility relative to NRX-1532 [11]: more soluble

NS(=O)(=O)OC[C@@H]1C[C@@H](n2ccc3c(N[C@H]4CCc5ccccc54)ncnc32)C[C@@H]1O [MLN4924, reference compound]
effect of co-treatment on enhancer-induced degradation of S33E/S37A β-catenin [4]: completely blocked

COc1cc2c(cc1OC)CN(C(=O)c1c(Sc3c(Cl)cccc3Cl)cc(C(F)(F)F)[nH]c1=O)C2 [NRX-252262]
concentration at which degradation of S33E/S37A mutant β-catenin starts ([4]; HEK293T stable line, 6 h, western): ~ 35 μM
degradation of endogenous S37A mutant β-catenin [12]: did not induce degradation

β-catenin 17-48 (from UniProt P35222) pSer33/S37A peptide
binding against the reference [13]: stronger

B1: BODIPY-FL-labeled pSer33/S37C β-catenin peptide (residues 17-48) (peptide)
peptide: Ac-CDRKAAVSHWQQQSYLD[pS]GIHCGATTTAPSLSG
modifications: cysteine pairing not given here; also: BODIPY-FL label, site not given here
notes: added N-terminal cysteine of the peptide list, not part of β-catenin 17-48; as the printed 17-48 peptide with this change; also called pSer33/Cys37; pS33/S37C
Kd [14]: 154 nM

B2: BODIPY-FL-labeled pSer33/S37F β-catenin peptide (residues 17-48) (peptide)
peptide: Ac-CDRKAAVSHWQQQSYLD[pS]GIHFGATTTAPSLSG
modifications: also: BODIPY-FL label, site not given here
notes: added N-terminal cysteine of the peptide list, not part of β-catenin 17-48; as the printed 17-48 peptide with this change; also called pSer33/Phe37; pS33/S37F
Kd [14]: 23 nM

B3: β-catenin peptide (protein)
chain: ATQADLMELDMAMEPDRKAAVSHWQQQSYLDSGIHSGATTTAPSLSGKGNPEEEDVDTSQVLYEWEQGFSQSFTQEQVADIDGQYAMTRAQRVRAAMFPETLDEGMQIPSTQFDAAHPTNVQRLAEPSQMLKHAVVNLINYQDDAELATRAIPELTKLLNDEDQVVVNKAAVMVHQLSKKEASRHAIMRSPQMVSAIVRTMQNTNDVETARCTAGTLHNLSHHREGLLAIFKSGGIPALVKMLGSPVDSVLFYAITTLHNLLLHQEGAKMAVRLAGGLQKMVALLNKTNVKFLAITTDCLQILAYGNQESKLIILASGGPQALVNIMRTYTYEKLLWTTSRVLKVLSVCSSNKPAIVEAGGMQALGLHLTDPSQRLVQNCLWTLRNLSDAATKQEGMEGLLGTLVQLLGSDDINVVTCAAGILSNLTCNNYKNKMMVCQVGGIEALVRTVLRAGDREDITEPAICALRHLTSRHQEAEMAQNAVRLHYGLPVVVKLLHPPSHWPLIKATVGLIRNLALCPANHAPLREQGAIPRLVQLLVRAHQDTQRRTSMGGTQQQFVEGVRMEEIVEGCTGALHILARDVHNRIVIRGLNTIPLFVQLLYSPIENIQRVAAGVLCELAQDKEAAEAIEAEGATAPLTELLHSRNEGVATYAAAVLFRMSEDKPQDYKKRLSVELTSSLFRTEPMAWNETADLGLDIGAQGEPLGYRQDDPSYRSFHSGGYGQDALGMDPMMEHEMGGHHPGADYPVDGLPDLGHAQDLMDGLPPGDSNQLAWFDTDL
modifications: 20 µM NRX-252114
Kd [15]: 180 nM
